Literature values, collected in publication PMC12455926.

Target: AXL (Homo sapiens) (UniProt P30530)

In the case of Spike protein NTD (from UniProt P0DTC2), the Kd is given as 882 nM.
